Biological target: T1, S35 methionine radiolabelled BLM (in vitro translated) (UniProt P54132 1-1417, limits assumed, S35 methionine radiolabel)
T1 construct: also called in vitro translated BLM; radioactive BLM
Test: in vitro interaction of S35 methionine radiolabelled BLM with bound GST SMAD3, autoradiography
Procedure: H. BLM directly interacted with SMAD3 and HDAC1. (Top) In vitro interactions were carried out with S35 methionine radiolabelled BLM and bound (left) GST and GST SMAD3, (right) GST and GST HDAC1. Post-interaction the bound radioactive BLM was detected by autoradiography. (Bottom) Inputs used for in vitro translated BLM (detected by autoradiography) and GST, GST SMAD3, GST HDAC1 (detected by Coomassie). The

T1 sequence (P54132 whole entry): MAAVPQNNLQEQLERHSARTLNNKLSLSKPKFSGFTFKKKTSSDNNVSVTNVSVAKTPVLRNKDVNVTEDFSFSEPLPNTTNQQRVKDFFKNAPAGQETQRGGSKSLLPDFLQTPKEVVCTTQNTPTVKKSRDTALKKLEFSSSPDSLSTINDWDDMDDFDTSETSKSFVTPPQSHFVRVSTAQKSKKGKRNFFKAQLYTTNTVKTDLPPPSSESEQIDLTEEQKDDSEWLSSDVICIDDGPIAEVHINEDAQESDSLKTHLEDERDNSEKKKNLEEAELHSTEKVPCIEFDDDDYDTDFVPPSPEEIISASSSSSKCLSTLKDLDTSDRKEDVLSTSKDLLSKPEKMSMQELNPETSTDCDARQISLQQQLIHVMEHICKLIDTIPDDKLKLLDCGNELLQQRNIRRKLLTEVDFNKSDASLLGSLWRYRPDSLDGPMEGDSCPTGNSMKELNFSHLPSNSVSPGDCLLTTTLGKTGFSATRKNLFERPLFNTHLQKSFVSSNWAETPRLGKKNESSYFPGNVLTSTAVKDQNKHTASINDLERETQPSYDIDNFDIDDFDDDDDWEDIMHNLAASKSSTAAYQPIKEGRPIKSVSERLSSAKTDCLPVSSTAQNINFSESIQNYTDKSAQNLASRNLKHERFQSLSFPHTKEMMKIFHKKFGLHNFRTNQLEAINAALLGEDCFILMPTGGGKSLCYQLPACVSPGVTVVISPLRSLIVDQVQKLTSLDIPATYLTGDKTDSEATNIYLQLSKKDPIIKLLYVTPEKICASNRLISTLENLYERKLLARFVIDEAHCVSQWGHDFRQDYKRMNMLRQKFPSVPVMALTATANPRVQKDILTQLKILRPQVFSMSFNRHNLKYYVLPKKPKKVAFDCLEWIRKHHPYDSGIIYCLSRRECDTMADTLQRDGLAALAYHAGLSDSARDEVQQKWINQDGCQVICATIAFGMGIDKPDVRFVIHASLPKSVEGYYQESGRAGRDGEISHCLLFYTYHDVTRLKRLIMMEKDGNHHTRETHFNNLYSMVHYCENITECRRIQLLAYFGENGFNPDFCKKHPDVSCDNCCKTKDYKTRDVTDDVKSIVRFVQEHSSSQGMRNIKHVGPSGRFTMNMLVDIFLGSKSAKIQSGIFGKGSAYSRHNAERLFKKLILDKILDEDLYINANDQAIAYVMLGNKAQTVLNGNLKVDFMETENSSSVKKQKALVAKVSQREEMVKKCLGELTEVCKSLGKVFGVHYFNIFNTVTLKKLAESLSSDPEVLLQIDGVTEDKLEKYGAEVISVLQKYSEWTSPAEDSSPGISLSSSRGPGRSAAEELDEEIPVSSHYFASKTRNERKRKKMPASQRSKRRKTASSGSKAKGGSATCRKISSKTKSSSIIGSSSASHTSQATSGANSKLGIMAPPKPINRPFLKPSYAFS

binding result: binds
B1: GST SMAD3 (WT) (other, UniProt P84022 1-425, looked up)
chain: MSSILPFTPPIVKRLLGWKKGEQNGQEEKWCEKAVKSLVKKLKKTGQLDELEKAITTQNVNTKCITIPRSLDGRLQVSHRKGLPHVIYCRLWRWPDLHSHHELRAMELCEFAFNMKKDEVCVNPYHYQRVETPVLPPVLVPRHTEIPAEFPPLDDYSHSIPENTNFPAGIEPQSNIPETPPPGYLSEDGETSDHQMNHSMDAGSPNLSPNPMSPAHNNLDLQPVTYCEPAFWCSISYYELNQRVGETFHASQPSMTVDGFTDPSNSERFCLGLLSNVNRNAAVELTRRHIGRGVRLYYIGGEVFAECLSDSAIFVQSPNCNQRYGWHPATVCKIPPGCNLKIFNNQEFAALLAQSVNQGFEAVYQLTRMCTIRMSFVKGWGAEYRRQTVTSTPCWIELHLNGPLQWLDKVLTQMGSPSIRCSSVS
notes: also called pGEX6-SMAD3 WT; not shown: Glutathione S-transferase tag of the pGEX6 vector
